*1 amine or outer side, *2 acyl side, *3 side chain or, on linkers, in order; H or OH if unused. [ ]: non-standard residue; d: D form. The star is where a group is joined. ABG = 4-azidobenzoyl glycine, attached via its N-hydroxysuccinimide ester, [N-]=[N+]=Nc1ccc(C(=O)NCC(=O)*)cc1; Tyr(125I) = radioiodinated (125I) tyrosine, O=C([C@H](Cc1ccc(O[*:3])c([125I])c1)N[*:1])[*:2]
Assays:
[1] = system: phospholipase A, phospholipase C, phospholipase D and urokinase; assay: Labeling specificity of ABG-^125I-LHR^exo3 on other proteins; assay type: binding
Experimental: (§1) The mixtures were incubated at 37° C. for 90 minutes in the dark, irradiated with Mineralight R-52 UV lamp for 3 minutes as previously described, and solubilized in 2% SDS, 100 mM dithiothreitol and 8 M urea. The samples were electrophoresed on 8-12% polyacrylamide gradient gels. Gels were dried on filter paper and exposed to an imaging screen overnight, which was scanned on a phosphoimager. Exoloop 3 was modeled.

hCG = target: T1, hCG (Homo sapiens, UniProt P01215+P0DN86); assay: Photoaffinity labeling of hCG with ABG-^125I-LHR^exo3; assay type: binding; conditions: for inhibition of photoaffinity labeling of hCG by ABG-^125I-LHR^exo3: 4 mM of nonlabeled peptide
T1 construct: purchased National Hormone and Pituitary Program
Experimental: A peptide mimic corresponding to the LHR exoloop 3 sequence of K^573 […]^583 (LHR^exo3) was synthesized, to which a Tyr residue was attached to the C-terminus for radioiodination. The N-terminus of the peptide was acetylated and the C-terminus amidated. NHS-ABG was synthesized as previously described and freshly dissolved in dimethyl sulfoxide to a concentration of 50 mM. The reagent was diluted in 0.1 M sodium phosphate (pH 7.5) to a concentration of 20 mM. The reagent solution was immediately used to derivatize receptor peptides. In the dark, […] of NHS-ABG was added to […] of receptor peptides in […] of 0.1 M sodium phosphate (pH 7.5), and the mixture was incubated for 30 minutes at 25° C. […] After 20 seconds, 7 μl of sodium metabisulfite (2.5 mg/ml) in 10 mM Na2 HPO4, pH 7.4, was introduced to terminate radioiodination. Derivatized and radioiodinated ABG-^exo3 I-LHR^exo3 solution was mixed with 60 μl of 16% sucrose solution in PBS and fractionated on Sephadex Superfine G-10 column (0.6×15 cm) using PBS.
as §1

human LH = target: T2, human LH (Homo sapiens, UniProt P01215+P01229); assay: Photoaffinity labeling of LH with ABG-^125I-LHR^exo3; assay type: binding; conditions: increasing concentrations of LH
T2 construct: purchased National Hormone and Pituitary Program
Experimental: The samples were processed.
as §1

FSH [2] = target: T3, FSH (Homo sapiens, UniProt P01215+P01225); assay: Photoaffinity labeling of FSH with ^125I-FSHR^9-40F13Bpa; assay type: binding; conditions: increasing concentrations of nonradioactive peptide
T3 construct: purchased National Hormone and Pituitary Program
Experimental: In the dark, 30 μg of receptor peptides in 40 μl of 0.1 M sodium phosphate (pH 7.5). The mixture was incubated for 30 minutes at 25° C. […] After 20 seconds, 7 μl of sodium metabisulfite (2.5 mg/ml) in 10 mM Na2HPO4, pH 7.4, was introduced to terminate radioiodination.
as §1, with “with a” for “with”, “minutes,” for “minutes as previously described,”, “phosphoimager (Molecular Dynamics).” for “phosphoimager. Exoloop 3 was modeled.”
The FSH α and β subunits co-migrate on SDS-PAGE. To separate them on the gel FSH was deglycosylated with PNGase F and after it was photoaffinity labeled. Enzymatic cleavage was done by incubation of the labeled FSH complex with 20 or 50 units of PNGase F (New England BioLabs, Inc., MA) in 40 μl for 18 hours at 37° C. The samples were solubilized in SDS under the reducing condition and electrophoresed on 15% gel containing 9 M urea.

FSH [3] = target: T3, FSH; assay: Photoaffinity labeling of FSH with exoloop 3 peptide (ABG-^125I-FSHR^exo3); assay type: binding; conditions: increasing concentrations of unlabeled FSHR peptides
Experimental: A peptide mimic corresponding to the exoloop 3 sequence of K^580 […]^590 (FSHR exo3) (SEQ ID NO: 3) was synthesized, to which a Tyr residue was attached to the C-terminus for radioiodination. The N-terminus of the peptide was acetylated and the C-terminus amidated. NHS-ABG was synthesized as previously described and freshly dissolved in dimethyl sulfoxide to a concentration of 50 mM and NHS-ABG in 0.1 M sodium phosphate (pH 7.5) to a concentration of 20 mM. These reagent solutions were immediately used to derivatize receptor peptides. In the dark, 10 μl of NHS-ABG was added to […] of receptor peptides in 40 μl of 0.1 M sodium phosphate (pH 7.5). The mixture was incubated with NHS-ABG for 30 minutes at 25° C. […] After 20 sec, 7 μl of sodium metabisulfite (2.5 mg/ml) in 10 mM Na2 HPO4, pH 7.4, was introduced to terminate radioiodination.
Competitive inhibition experiments were carried out for the photoaffinity labeling experiments. 10 μl of PBS was introduced to each tube and the mixture was incubated with 10 μl of increasing concentrations of nonradioactive receptor peptides. The mixtures were incubated at 37° C. for 90 minutes in the dark, irradiated with Mineralight R-52 UV lamp for 3 minutes as previously described, and solubilized in 2% SDS, 100 mM dithiothreitol and 8 M urea. The samples were electrophoresed on 8-12% polyacrylamide gradient gels. […]

FSHR = assay: Inhibition of ^125I-FSH binding to the receptor on intact cells by exoloop 3 peptide; parameters: species or system human
Experimental: The FSH a and b subunits separated in the lower band and upper band, respectively.
Human FSH (the National Hormone and Pituitary Program) was radioiodinated as previously described for radioiodination of hCG. […] The Kd values were determined by Scatchard plots. Truncated exodomain was solubilized in Nonidet P-40 and assayed for hormone binding as described previously. For intracellular cAMP assay, cells were washed twice with Dulbecco's modified Eagle's media and incubated in the media containing isobutylmethylxanthine (0.1 mg/ml) for 15 minutes. Increasing concentrations of FSH were then added and the incubation was continued for 45 minutes at 37° C. After removing the media, the cells were rinsed once with fresh media without isobutylmethylxanthine, lysed in 70% ethanol, freeze-thawed in liquid nitrogen, and scraped. […] Exoloop 3 of FSHR was modeled based on the crystal structure of rhodopsin as a template.

LHR = target: T4, LHR (Homo sapiens, UniProt P22888); assay: Inhibition of ^125I-hCG binding to cells stably expressing LHR; conditions: increasing concentrations of nonradioactive competitor
T4 construct: expressed in transfected cells
Experimental: The cells were washed and bound radioactivity was measured.
The Kd values were determined by Scatchard plots. For intracellular cAMP assay, cells were washed twice with Dulbecco's modified Eagle's media and incubated in the media containing isobutylmethylxanthine (0.1 mg/ml) for 15 minutes. Increasing concentrations of hormone were then added and the incubation was continued for 45 minutes at 37° C. After removing the media, the cells were rinsed once with fresh media without isobutylmethylxanthine, lysed in 70% ethanol, freeze-thawed in liquid nitrogen, and scraped.

human LHR = assay: Inositol phosphate assay, LHR exoloop 3 mutants in HEK 293 cells, hCG stimulated; assay type: cell-based; conditions: NS = not significant
Experimental: Stable cells were plated in 12 well plates and grown in inositol free DMEM (Atlanta Biologicals) supplemented with 8% heat-inactivated horse serum and […] [^3H]inositol (NEN) for 48 hours to 40-50% confluency. After removing the medium, the cells were incubated in 1 ml of fresh wash buffer consisting of DMEM w/o inositol and 15 mM HEPES (pH 7.3) for 1 hour at 37° C. This medium was removed and 0.3 ml wash buffer containing 20 mM LiCl was added and incubated for 15 minutes at 37° C. After the cells were stimulated with increasing concentrations of hormone for 30 minutes at 37° C., the incubation was terminated by the removal of medium and the addition of 0.25 ml of 0.6 N HCl to each well. The cells were scraped, transferred into microcentrifuge tubes and the wells were again washed with 0.25 ml of 0.6 N HCl. The combined washes were treated with 0.9 ml of a mixture of chloroform:methanol (2:1), vortexed and centrifuged at 1000×g for 5 minutes at room temperature. The top aqueous layer, which was free of phospholipids, was removed and the remaining chloroform layer treated with 0.2 ml of methanol:water (1:1), vortexed and centrifuged, as above. This aqueous layer was added to the previous aqueous layer and the samples dried in a vacuum concentrator. […] Aliquots of 200 μl were counted for radioactivity in 1.5 ml of Ultima AF scintillation fluid (Packard). […]

T3 sequence (P01215 25-116): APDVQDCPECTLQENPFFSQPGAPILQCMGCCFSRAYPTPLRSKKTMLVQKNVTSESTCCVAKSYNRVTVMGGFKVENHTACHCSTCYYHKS
T3 sequence (P01225 19-129): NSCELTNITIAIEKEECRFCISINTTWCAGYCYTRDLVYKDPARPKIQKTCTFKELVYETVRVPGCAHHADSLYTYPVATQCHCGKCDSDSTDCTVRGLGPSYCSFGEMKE
T1 sequence (P01215 25-116, other chains not shown): as the sequence (P01215 25-116) above
T2 sequence (P01215 25-116): as above
T2 sequence (P01229 21-141): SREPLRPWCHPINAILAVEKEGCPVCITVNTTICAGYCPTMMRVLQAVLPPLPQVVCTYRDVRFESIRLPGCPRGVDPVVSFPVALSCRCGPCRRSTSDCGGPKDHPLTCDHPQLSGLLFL
Chain of human LHR (P22888 27-363 limits assumed): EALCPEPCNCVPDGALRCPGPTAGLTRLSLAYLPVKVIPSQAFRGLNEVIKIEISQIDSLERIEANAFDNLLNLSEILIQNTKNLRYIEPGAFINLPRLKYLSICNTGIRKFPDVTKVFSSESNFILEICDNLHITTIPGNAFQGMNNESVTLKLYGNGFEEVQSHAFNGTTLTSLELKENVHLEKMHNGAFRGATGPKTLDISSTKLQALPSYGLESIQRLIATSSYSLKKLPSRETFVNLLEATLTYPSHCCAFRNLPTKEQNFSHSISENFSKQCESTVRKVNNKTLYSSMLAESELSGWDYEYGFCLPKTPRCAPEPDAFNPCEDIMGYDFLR
T4 sequence (P22888 27-699): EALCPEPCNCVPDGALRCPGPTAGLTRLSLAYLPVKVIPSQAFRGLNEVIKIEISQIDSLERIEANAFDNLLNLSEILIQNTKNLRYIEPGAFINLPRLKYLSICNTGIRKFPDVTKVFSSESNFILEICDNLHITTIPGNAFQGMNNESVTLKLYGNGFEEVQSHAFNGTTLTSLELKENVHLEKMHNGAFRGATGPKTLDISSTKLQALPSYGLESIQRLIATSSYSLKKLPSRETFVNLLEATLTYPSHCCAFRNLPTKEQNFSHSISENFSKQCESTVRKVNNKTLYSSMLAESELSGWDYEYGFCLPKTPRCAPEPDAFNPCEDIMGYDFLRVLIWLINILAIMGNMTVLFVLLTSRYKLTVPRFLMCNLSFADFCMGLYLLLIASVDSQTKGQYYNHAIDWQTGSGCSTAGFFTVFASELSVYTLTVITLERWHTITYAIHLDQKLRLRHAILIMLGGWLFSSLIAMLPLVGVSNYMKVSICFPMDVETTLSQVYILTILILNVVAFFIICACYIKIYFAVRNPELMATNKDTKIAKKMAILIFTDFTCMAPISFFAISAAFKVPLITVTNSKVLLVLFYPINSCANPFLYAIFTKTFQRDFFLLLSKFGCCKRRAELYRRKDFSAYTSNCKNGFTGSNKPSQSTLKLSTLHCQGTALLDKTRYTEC
Chain of FSHR (P23945 18-695): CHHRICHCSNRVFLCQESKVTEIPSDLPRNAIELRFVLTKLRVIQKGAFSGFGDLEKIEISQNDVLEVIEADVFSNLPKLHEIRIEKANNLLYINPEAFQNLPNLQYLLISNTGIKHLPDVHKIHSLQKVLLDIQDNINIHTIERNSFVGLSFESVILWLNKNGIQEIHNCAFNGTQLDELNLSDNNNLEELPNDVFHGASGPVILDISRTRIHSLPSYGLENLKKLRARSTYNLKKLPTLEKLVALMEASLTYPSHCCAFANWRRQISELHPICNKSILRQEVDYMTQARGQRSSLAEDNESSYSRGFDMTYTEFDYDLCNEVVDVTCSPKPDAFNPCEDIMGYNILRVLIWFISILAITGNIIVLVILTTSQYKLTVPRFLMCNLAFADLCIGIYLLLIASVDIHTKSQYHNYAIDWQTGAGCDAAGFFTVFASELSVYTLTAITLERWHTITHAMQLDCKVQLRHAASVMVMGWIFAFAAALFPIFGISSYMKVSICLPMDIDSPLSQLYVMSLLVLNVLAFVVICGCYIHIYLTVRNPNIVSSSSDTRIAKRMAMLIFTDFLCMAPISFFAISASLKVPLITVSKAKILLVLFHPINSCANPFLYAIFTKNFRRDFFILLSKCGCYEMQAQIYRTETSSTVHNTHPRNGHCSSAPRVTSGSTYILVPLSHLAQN

ABG-^125I-LHR^exo3: LHR exoloop 3 peptide derivatized with N-hydroxysuccinimide of 4-azidobenzoyl glycine and radio-iodinated (Ac-KVPLITVTNSK(ABG)[Tyr(125I)]-NH2; also: derivatized with N-hydroxysuccinimide ester of 4-azidobenzoyl glycine, radio-iodinated (125I))
photoaffinity labeling of phospholipase A, phospholipase C, phospholipase D and urokinase [1]: not photoaffinity labeled
labeled hCG subunits (hCG): the a band labeled slightly more than the β band
hCG concentration at which the maximum labeling was reached (hCG; both hormone subunits, constant amount of probe): 50 nM
photoaffinity labeling of denatured hCG (hCG; hCG boiled in 8 M urea): not labeled at all
photoaffinity labeling of LH subunits (human LH): Both of the α and β subunits of LH were labeled

FSHR^9-40: peptide mimic of FSH receptor sequence S9-K40, SNRVFLCQESKVTEIPSDLPRNAIELRFVLTK (SEQ ID NO: 2) (Ac-YSNRVFLCQESKVTEIPSDLPRNAIELRFVLTK-NH2; not fully specified (some residues); printed as S9NRVFLCQESKVTEIPSDLPRNAIELRFVLTK40)
inhibition of photoaffinity labeling of FSH by ^125I-FSHR^9-40F13Bpa (FSH [2]): inhibited the photoaffinity labeling in a dose dependent manner
inhibition of photoaffinity labeling of FSH by ^125I-ABG-FSHR^exo3 (FSH [3]): inhibited the photoaffinity labeling in a dose dependent manner

FSHR^exo3: peptide mimic of FSHR exoloop 3, KVPLITVSKAK (SEQ ID NO: 3), C-terminal Tyr, N-acetylated, C-amidated (Ac-KVPLITVSKAKY-NH2)
inhibition of photoaffinity labeling of FSH by ^125I-ABG-FSHR^exo3 (FSH [3]): inhibited the photoaffinity labeling in a dose dependent manner
inhibition of ^125I-FSH binding to the receptor on intact cells (FSHR): inhibited ^125I-FSH binding to the receptor on intact cells in a dose dependent manner

LHR^18-36: N-terminal peptide of the LHR exodomain (CPGPTAGLTRLSLAYLPVK)
inhibition of photoaffinity labeling of hCG by ABG-^125I-LHR^exo3 (hCG): failed to inhibit the labeling

LHR^exo3: peptide mimic of LHR exoloop 3, KVPLITVTNSK, C-terminal Tyr, N-acetylated, C-amidated (Ac-KVPLITVTNSKY-NH2)
inhibition of photoaffinity labeling of hCG by ABG-^125I-LHR^exo3 (hCG): blocked the labeling
inhibition of ^125I-hCG binding to LHR (LHR): inhibited ^125I-hCG binding to LHR

Wildtype: wild type human LH receptor expressed in HEK 293 cells (Table II)
IP1 (cpm) (human LHR): 13,780-w cpm
